From patent US9187525B2, “Methods of treating ophthalmic diseases using NPR-B agonists” (Shire Orphan Therapies GmbH, dated 2015)
Numbered stars: 1 amine (or outer) side, 2 acyl side, 3 side chain; on linkers, the order of the positions; unused ones are H or OH. Square brackets hold non-standard residues; d marks the D form. Ends that are not written are not given here. * marks the point of attachment. ξ: configuration not given here. Apc(Ae) = 4-amino-1-(2-amino-ethyl)-piperidine-4-carboxylic acid, O=C(C1(N[*:1])CCN(CCN[*:3])CC1)[*:2]; Apc(Et) = 4-amino-1-ethyl-piperidine-4-carboxylic acid, CCN1CCC(N[*:1])(C(=O)[*:2])CC1; Apc(Me) = 4-amino-1-methyl-piperidine-4-carboxylic acid, CN1CCC(N[*:1])(C(=O)[*:2])CC1; Pro(trans-4-NH2) = O=C([C@@H]1C[C@@H](N[*:3])CN1[*:1])[*:2]; Sni = (S)-nipecotic acid, O=C([C@H]1CCCN([*:1])C1)[*:2]; Eat = 2,3-dihydro-1H-indole-2-carboxylic acid; Oic = O=C(O)[C@@H]1C[C@@H]2CCCC[C@@H]2N1; dDap(Me2) = CN(C)C[C@@H](N)C(=O)O; Hyp = O=C(O)[C@@H]1C[C@@H](O)CN1; Tic = O=C(O)[C@@H]1Cc2ccccc2CN1; NMeL = CN[C@@H](CC(C)C)C(=O)O; AR‑201‑58 = not defined here; AR‑201‑62 = not defined here; AR‑201‑68 = not defined here; AR‑201‑69 = not defined here; AR‑201‑72 = not defined here; AR‑201‑73 = not defined here; ξαMeL = CC(C)CC(C)(N)C(=O)O; Octanoyl = CCCCCCCC(=O)*; Thz = O=C(O)[C@@H]1CSCN1; Aze = O=C(O)[C@@H]1CCN1; Nbt = 4-butyl-thiazole; Sbt = 5-butyl-thiazole; Aib = CC(C)(N)C(=O)O

T1: natriuretic peptide receptor-B (human)
T1 chain: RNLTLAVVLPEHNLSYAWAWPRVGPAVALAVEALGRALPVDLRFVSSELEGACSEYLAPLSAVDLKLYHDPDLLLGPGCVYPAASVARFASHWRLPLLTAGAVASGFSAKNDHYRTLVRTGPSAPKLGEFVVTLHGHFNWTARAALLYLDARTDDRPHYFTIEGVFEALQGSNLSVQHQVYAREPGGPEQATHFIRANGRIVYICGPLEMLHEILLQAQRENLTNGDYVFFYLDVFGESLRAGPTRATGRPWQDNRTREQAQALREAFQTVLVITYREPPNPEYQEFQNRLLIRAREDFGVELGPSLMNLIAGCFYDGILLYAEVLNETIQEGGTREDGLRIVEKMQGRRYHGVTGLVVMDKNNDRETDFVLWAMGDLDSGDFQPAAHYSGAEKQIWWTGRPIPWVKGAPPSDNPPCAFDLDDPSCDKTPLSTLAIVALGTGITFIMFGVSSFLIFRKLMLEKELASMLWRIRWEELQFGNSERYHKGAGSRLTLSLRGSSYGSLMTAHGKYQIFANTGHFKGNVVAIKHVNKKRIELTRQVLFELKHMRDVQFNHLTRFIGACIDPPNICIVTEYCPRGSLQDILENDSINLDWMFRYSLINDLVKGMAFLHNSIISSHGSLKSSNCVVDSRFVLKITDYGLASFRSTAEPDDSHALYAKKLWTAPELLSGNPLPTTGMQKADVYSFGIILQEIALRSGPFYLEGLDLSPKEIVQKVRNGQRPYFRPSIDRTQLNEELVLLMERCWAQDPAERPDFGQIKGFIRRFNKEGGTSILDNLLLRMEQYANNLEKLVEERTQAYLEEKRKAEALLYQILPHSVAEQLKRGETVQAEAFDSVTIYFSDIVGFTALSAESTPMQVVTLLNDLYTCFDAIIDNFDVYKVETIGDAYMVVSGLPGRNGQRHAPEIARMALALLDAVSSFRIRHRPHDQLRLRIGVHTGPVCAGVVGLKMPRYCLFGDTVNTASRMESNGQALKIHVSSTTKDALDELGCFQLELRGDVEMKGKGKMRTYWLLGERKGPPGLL


Target: T1, natriuretic peptide receptor-B
Assay: cell-based or functional assay

Binder	EC50 group, cGMP in GTM-3 cells
XXFGLKLDRI (HELM PEPTIDE1{[CCCCCC(=O)[*:2]].[O=C(Cc1ccc(N[*:1])cc1)[*:2]].F.G.L.K.L.D.R.I.[am]}$$$$V2.0; SMILES CCCCCC(=O)Nc1ccc(CC(=O)N[C@@H](Cc2ccccc2)C(=O)NCC(=O)N[C@@H](CC(C)C)C(=O)N[C@@H](CCCCN)C(=O)N[C@@H](CC(C)C)C(=O)N[C@@H](CC(=O)O)C(=O)N[C@@H](CCCNC(=N)N)C(=O)N[C@H](C(N)=O)[C@@H](C)CC)cc1) [JAL-0650]	≤ 15 µM
Octanoyl-[Sni]F[dL]L[Hyp][NMeL]VRI-NH2 [JAL-1399]	≤ 5 µM
Octanoyl-[dA]F[dR]L[Hyp][Eat]DRI-NH2 [JAL-1394]	≤ 15 µM
[AR‑201‑68]F[dR]L[Hyp][NMeL]DRI-NH2 (reading uncertain; also: printed as (AR-201-68)-Phe-arg-Leu-Hyp-Nml-Asp-Arg-Ile-NH2) [JAL-1381]	≤ 5 µM
Octanoyl-[dA]F[Apc(Ae)]A[dE]L[Hyp][NMeL]DRI-NH2 [JAL-1408]	≤ 5 µM
Octanoyl-[dA]F[Apc(Et)]E[dT]L[Hyp][NMeL]DRI-NH2 [JAL-1407]	≤ 1 µM
Octanoyl-[dA]F[dL]L[Hyp][NMeL]DR[Aib]-NH2 [JAL-1413]	≤ 5 µM
Octanoyl-[dA]F[dR]L[Hyp]PDRI-NH2 [JAL-1387]	≤ 15 µM
[AR‑201‑72]F[dR]L[Hyp][NMeL]DRI-NH2 (reading uncertain; also: printed as (AR-201-72)-Phe-arg-Leu-Hyp-Nml-Asp-Arg-Ile-NH2) [JAL-1377]	≤ 15 µM
Octanoyl-[dA]F[dR]L[Hyp][Tic]DRI-NH2 [JAL-1396]	≤ 5 µM
[AR‑201‑73]F[dL]L[Hyp][NMeL]DRI-NH2 (reading uncertain; also: printed as (AR-201-73)-Phe-leu-Leu-Hyp-Nml-Asp-Arg-Ile-NH2) [JAL-1378]	≤ 5 µM
[AR‑201‑62]F[dL]L[Hyp][NMeL]DRI-NH2 (reading uncertain; also: printed as (AR-201-62)-Phe-leu-Leu-Hyp-Nml-Asp-Arg-Ile-NH2) [JAL-1374]	≤ 5 µM
XXFGLKLDRI (HELM PEPTIDE1{[CCCCCC(=O)[*:2]].[O=C(C1CCN([*:1])CC1)[*:2]].F.G.L.K.L.D.R.I.[am]}$$$$V2.0; SMILES CCCCCC(=O)N1CCC(C(=O)N[C@@H](Cc2ccccc2)C(=O)NCC(=O)N[C@@H](CC(C)C)C(=O)N[C@@H](CCCCN)C(=O)N[C@@H](CC(C)C)C(=O)N[C@@H](CC(=O)O)C(=O)N[C@@H](CCCNC(=N)N)C(=O)N[C@H](C(N)=O)[C@@H](C)CC)CC1) [JAL-0651]	≤ 15 µM
Octanoyl-[dA]F[dR]L[Hyp][Thz]DRI-NH2 [JAL-1395]	≤ 15 µM
[AR‑201‑72]F[dL]L[Hyp][NMeL]DRI-NH2 (reading uncertain; also: printed as (AR-201-72)-Phe-leu-Leu-Hyp-Nml-Asp-Arg-Ile-NH2) [JAL-1376]	≤ 15 µM
[AR‑201‑58]F[dL]L[Hyp][NMeL]DRI-NH2 (reading uncertain; also: printed as (AR-201-58)-Phe-leu-Leu-Hyp-Nml-Asp-Arg-Ile-NH2) [JAL-1373]	≤ 5 µM
Nbt-[Sni]F[dL]L[Hyp][NMeL]DRI-NH2 [JAL-1383]	≤ 5 µM

Binder	EC50 group, cGMP in GTM-3 cells
Sbt-[Sni]F[dL]L[Hyp][NMeL]DRI-NH2 [JAL-1382]	≤ 1 µM
Octanoyl-[dA]F[Apc(Me)]M[dE]L[Hyp][NMeL]DRI-NH2 [JAL-1406]	≤ 1 µM
[AR‑201‑69]F[dL]L[Hyp][NMeL]DRI-NH2 (reading uncertain; also: printed as (AR-201-69)-Phe-leu-Leu-Hyp-Nml-Asp-Arg-Ile-NH2) [JAL-1375]	≤ 5 µM
[AR‑201‑73]F[dR]L[Hyp][NMeL]DRI-NH2 (reading uncertain; also: printed as (AR-201-73)-Phe-arg-Leu-Hyp-Nml-Asp-Arg-Ile-NH2) [JAL-1379]	≤ 5 µM
Octanoyl-[dA]F[dL]L[Hyp][Oic]DRI-NH2 [JAL-1386]	≤ 5 µM
[AR‑201‑68]F[dL]L[Hyp][NMeL]DRI-NH2 (reading uncertain; also: printed as (AR-201-68)-Phe-leu-Leu-Hyp-Nml-Asp-Arg-Ile-NH2) [JAL-1380]	≤ 1 µM
Octanoyl-[Sni]F[dDap(Me2)]L[Pro(trans-4-NH2)][NMeL]VRI-NH2 [JAL-1403]	≤ 1 µM
Octanoyl-[Sni]F[dDap(Me2)]L[Pro(trans-4-NH2)][NMeL]VRI-NH2 [JAL-1405]	≤ 1 µM
Octanoyl-[dA]F[dR]L[Hyp][Aze]DRI-NH2 [JAL-1393]	≤ 15 µM
Octanoyl-[Sni]F[dDap(Me2)]L[Hyp][NMeL]VRI-NH2 [JAL-1400]	≤ 15 µM
Octanoyl-[Sni]F[dL]L[Pro(trans-4-NH2)][NMeL]VRI-NH2 [JAL-1404]	≤ 5 µM
Octanoyl-[Sni]F[dDap(Me2)]L[Hyp][NMeL]VRI-NH2 [JAL-1402]	≤ 5 µM
Octanoyl-[Sni]F[dL]L[Pro(trans-4-NH2)][NMeL]VRI-NH2 [JAL-1401]	≤ 1 µM
Octanoyl-AFLL[Hyp][NMeL]DR[ξαMeL]-NH2 (also: lower-case ala, leu: meaning not given here) [JAL-1414]	≤ 1 µM
Octanoyl-[Sni]F[dL]L[Hyp][NMeL]VRI-NH2 [JAL-1398]	≤ 1 µM
XXFGLKLDRI (HELM PEPTIDE1{[CCCCCC(=O)[*:2]].[O=C(Cc1cccc(N[*:1])c1)[*:2]].F.G.L.K.L.D.R.I.[am]}$$$$V2.0; SMILES CCCCCC(=O)Nc1cccc(CC(=O)N[C@@H](Cc2ccccc2)C(=O)NCC(=O)N[C@@H](CC(C)C)C(=O)N[C@@H](CCCCN)C(=O)N[C@@H](CC(C)C)C(=O)N[C@@H](CC(=O)O)C(=O)N[C@@H](CCCNC(=N)N)C(=O)N[C@H](C(N)=O)[C@@H](C)CC)c1) [JAL-0649]	≤ 15 µM
